{"source": "paper PMC6502846", "key": {"[1]": {"biological_target": "C5b-8(C9)n (1 ≤ n < 18) (human) (UniProt P01031)", "assay": "rapid atomic force microscopy imaging; supported bilayers of E. coli lipid extract on mica; proteins injected one after the other in situ without wash steps, 80 nM C5b6, C7 and C8, 1.4 µM C9; 30 °C; 6.5 s per frame; 20 mM HEPES, 120 mM NaCl, pH 7.4; chamber passivated with BSA"}, "[2]": {"biological_target": "C5b-8 initiator complex, comprised of C5b6 in complex with C7 and C8 (human) (UniProt P01031)", "assay": "rapid atomic force microscopy imaging; supported bilayers of E. coli lipid extract on mica; proteins injected one after the other in situ without wash steps, 80 nM C5b6, C7 and C8, 1.4 µM C9; 30 °C; 6.5 s per frame; 20 mM HEPES, 120 mM NaCl, pH 7.4; chamber passivated with BSA"}}}
{"substance": "C9 (from UniProt P02748 22-559) (natural protein)", "values": [{"measurement": "kon", "setting": "[1]", "value": 108000, "unit": "M⁻¹ s⁻¹"}, {"measurement": "τ olig, time to add 17 copies of C9 after the initiation event", "setting": "[1]", "value": 112, "unit": "s"}, {"measurement": "τ+, average time per addition of each of the remaining 17 C9 subunits", "setting": "[1]", "value": 6.6, "unit": "s"}, {"measurement": "characteristic initiation time τ init", "setting": "[2]", "value": 912, "unit": "s"}, {"measurement": "kon", "setting": "[2]", "value": 780, "unit": "M⁻¹ s⁻¹"}]}
